“And” between values parts separate entries of the source, which are not always exact repeats. Equal values may be shown once.
Columns and labels:
[1] = target: E6AP LXXLL motif (Homo sapiens) (UniProt Q05086); assay: SPR; details: cited from earlier work
[2] = target: E6APwt, 16-mer LXXLL motif peptide of E6AP; assay: SPR; Biacore T200, 25 °C; biotinylated peptide reversibly captured on CAP chip (Biotin CAPture kit), MBP-E6 as analyte in two-fold dilutions from 10 µM; Tris 50 mM pH 8, NaCl 400 mM, DTT 2 mM, 0.005% polysorbate 20; steady-state analysis, 1:1 model; protein samples purified on resin N1 or N2
[3] = target: the molecule itself; assay: SEC; analytical SEC on Superdex 200 Increase 5/150 GL in Buffer A (Tris 50 mM pH 8, NaCl 400 mM, DTT 2 mM), A280; monomer and oligomer peaks assigned by column calibration; samples from different resins, elution methods and contact times

## HPV16 E6 (from UniProt P03126)
[1]
  Kd: 4150 nM

## MBP-fused HPV16 E6 F47R 4C/4S (natural protein)
[2]
  Kd: 1600 nM and 2000 nM

B1: MBP-fused HPV8 E6 (natural protein)
chain: MDGQDKASNLDTNKDELPSTIKELAEALGIPLQDCLVPCNFCGNFLDFLELCEFDKKRLCLIWKNYVVTACCRCCCVATATFEFNEYYEQTVLGRDIELATGRSIFEIDVRCQNCLSFLDIIEKLDCCGRGRPFHKVRGGWKGVCRLCKHLYHDW
notes: Printed order of the fusion: MBP-6His-TEV site-E6 (vector pETM-41, NcoI/Acc65I sites); tags were not cleaved off; Expected MW 60.9 kDa; also called MBP-8E6; not shown: MBP, N-terminal, kept
[3]
  binding result: binds

From publication PMC6271572, “One-step affinity purification of fusion proteins with optimal monodispersity and biological activity: application to aggregation-prone HPV E6 proteins” (Microbial Cell Factories, 2018)
